{"source": "patent US20060100146A1", "about": "“AWAT-related methods and articles” (priority 2004, published 2006)", "molecules": {"B1": {"name": "hDC4: acyl-CoA wax alcohol acyltransferase 2, synonym human DGAT candidate gene 4; human enzyme expressed in yeast microsomes (protein, UniProt Q6E213 1-333, looked up)", "Acyl-CoA wax alcohol …": "MLLPSKKDLKTALDVFAVFQWSFSALLITTTVIAVNLYLVVFTPYWPVTVLILTWLAFDWKTPQRGGRRFTCVRHWRLWKHYSDYFPLKLLKTHDICPSRNYILVCHPHGLFAHGWFGHFATEASGFSKIFPGITPYILTLGAFFWMPFLREYVMSTGACSVSRSSIDFLLTHKGTGNMVIVVIGGLAECRYSLPGSSTLVLKNRSGFVRMALQHGVPLIPAYAFGETDLYDQHIFTPGGFVNRFQKWFQSMVHIYPCAFYGRGFTKNSWGLLPYSRPVTTIVGEPLPMPKIENPSQEIVAKYHTLYIDALRKLFDQHKTKFGISETQELEII", "modifications": "yeast microsomes", "notes": "acyl-CoA wax alcohol acyltransferase 2, synonym human DGAT candidate gene 4; human enzyme expressed in yeast microsomes"}}, "key": {"[1]": {"tested_on": "wax ester formation from cetyl alcohol and oleoyl-CoA", "experiment": "In vitro AWAT (acyl-CoA wax alcohol acyltransferase) assay in yeast microsomes", "format": "biochemical, human", "description": "(§1) A dilute inoculation of each strain into 500 mL of SC-His+2% galactose+1% raffinose was grown overnight at 30° C. into log phase. Cells were washed and lysed, and microsomes were prepared from a 100,000 g spin, as previously described (39). Protein concentrations were determined (40) and diacylglycerol esterification assays were performed as described previously (17,19,41). In brief, microsomes (100 μg) were preincubated for 5 min at 37° in 100 mM TRIS, pH 7.5 containing 0.25 M sucrose, 1 mM EDTA, 10 mM MgCl2, 20 μM fatty acid free BSA, 160 μM dioleoylglycerol (in 5 μl acetone, final volume 200 μl). The reaction was initiated by the addition of [^14C]oleoyl-CoA (10-20,000 dpm/nmol, 40 μM) and stopped after 10 min by the addition of 4 ml of chloroform:methanol (2:1 v/v). Carrier TAG (10 μg) and internal standard ([^3H]triolein, 30,000 dpm) were added followed by 0.8 ml water to separate phases. The lower chloroform layer containing the lipids was removed, evaporated to dryness, resuspended in 50 μl chloroform and individual lipid classes separated on Varian chromatography paper using a hexane:diethyl ether:acetic acid (170:30:1 v/v) mobile phase. The spot corresponding to TG was cut out and counted.\nAcyl-CoA wax alcohol acyltransferase (AWAT) assays were performed as above with the following exceptions: 200 μM cetyl alcohol (unlabeled or [^14C]-labeled 10,000 dpm/nmol) was substituted for DAG, oleoyloleate was used as carrier, and reactions were incubated for 20 min in a final volume of 250 μl. After separation by TLC, the spot corresponding to wax ester was cut out and counted. For alcohol and acyl-CoA substrate specificity studies, microsomal preparations from DGA2 (20 μg) and hDC4 (10 μg) were used. Kill reactions and vector controls were included for all experiments. The various wax alcohols and acyl-Co A's were substituted for cetyl alcohol or oleoyl Co A at the concentrations specified above. Activity is presented as pmol/min/mg protein.\n(§2) Microsomes from TG-null yeast strains transformed with human DGAT2, DGA2, hDC3, or hDC4 were incubated in the presence of dioleoylglycerol or cetyl alcohol and [^14C]oleoyl-CoA and assayed for esterification as described in Experimental Procedures. Data are expressed as pmol of neutral lipid (TAG or Wax ester) formed per min/mg protein as a mean±Std. dev. DGAT activities are from 3 replicate experiments and AWAT activities are from a representative experiment performed in triplicate. Background levels to the assay from strains transformed with vector control have been subtracted."}, "[2]": {"tested_on": "TAG formation from dioleoylglycerol and [14C]oleoyl-CoA", "experiment": "In vitro DGAT (diacylglycerol esterification) assay in yeast microsomes", "format": "biochemical", "conditions": "microsomes from TG-null yeast expressing the human enzyme; dioleoylglycerol + [14C]oleoyl-CoA; TAG formed; vector control subtracted; mean +/- Std. dev., 3 replicate experiments", "description": "as §1, §2"}}, "note": "Several values for one entry are separate records, joined by “and”; a condition that tells them apart may be missing. Identical values can stand only once.", "data": [{"molecule": "B1", "values": [{"measurement": "AWAT Activity", "setting": "[1]; [14C]cetyl alcohol rather than radiolabeled oleoyl CoA as monitor of ester formation", "value": 1232, "unit": "pmol/min/mg"}, {"measurement": "AWAT Activity", "setting": "[1]; microsomes from TG-null yeast expressing the human enzyme, cetyl alcohol + [14C]oleoyl-CoA, wax ester formed, vector control subtracted, mean +/- Std. dev., triplicate", "value": "1066 pmol/min/mg protein and 1066 +/− 18.6 pmol/min/mg protein"}, {"measurement": "DGAT Activity", "setting": "[2]", "value": "11.4 +/− 3.4 pmol/min/mg protein"}]}]}
